# Experimental data as given in patent publication US20240417475A1 (AFFIMED, published 2024).
# B1: scFv-IgAb_387 (FOLR1_1×CD16a3) (bispecific antibody)
# heavy: EVQLVESGGGVVQPGRSLRLSCSASGFTFSGYGLSWVRQAPGKGLEWVAMISSGGSYTYYADSVKGRFAISRDNAKNTLFLQMDSLRPEDTGVYFCARHGDDPAWFAYWGQGTPVTVSSASTKGPSVFPLAPSSKSTSGGTAALGCLVKDYFPEPVTVSWNSGALTSGVHTFPAVLQSSGLYSLSSVVTVPSSSLGTQTYICNVNHKPSNTKVDKKVEPKSCDKTHTCPPCPAPEFEGGPSVFLFPPKPKDTLMISRTPEVTCVVVAVSHEDPEVKFNWYVDGVEVHNAKTKPREEQYNSTYRVVSVLTVLHQDWLNGKEYKCKVSNKALPAPIEKTISKAKGQPREPQVYTLPPSREEMTKNQVSLTCLVKGFYPSDIAVEWESNGQPENNYKTTPPVLDSDGSFFLYSKLTVDKSRWQQGNVFSCSVMHEALHNHYTQKSLSLSPGGGGGSGGGGSGGGGSGGGGSGGGGSGGGGSSYELTQPLSVSVALGQTARITCGGNNIGSKSVHWYQQKPGQAPVLVIYQDKKRPSGIPERFSGSNSGNTATLTISRAQAGDEADYYCQVWDDYIVLFGCGTKLTVLGGSGGSGGSGGSGGSGGSGGSQVQLVQSGAEVKKPGASVKVSCKASGYTFTNYYMQWVRQAPGQCLEWMGIINPSGGVTSYAQKFQGRVTMTRDTSTSTVYMELSSLRSEDTAVYYCARGSAYYYDFADYWGQGTLVTVSSG
# light: DIQLTQSPSSLSASVGDRVTITCSVSSSISSNNLHWYQQKPGKAPKPWIYGTSNLASGVPSRFSGSGSGTDYTFTISSLQPEDIATYYCQQWSSYPYMYTFGQGTKVEIKRTVAAPSVFIFPPSDEQLKSGTASVVCLLNNFYPREAKVQWKVDNALQSGNSQESVTEQDSKDSTYSLSSTLTLSKADYEKHKVYACEVTHQGLSSPVTKSFNRGEC
# modifications: Chemically biotinylated (NHS-PEG4-biotin) in Example 22 only.
# notes: Tetravalent bispecific scFv-IgAb; also called FOLR1×CD16A scFv-IgAb_387; FOLR1/CD16A scFv-IgAb_387; copies: 2 + 2
# Experiments:
# [1] = molecular target: T1, human FOLR1 endogenously expressed on tumor cell lines (human, UniProt P15328 25-234); experiment: flow cytometry on HCC-827 cells, 37 C, one-site fit of MFI, mean
# T1 construct: whole, on cells; also called FOLR1-positive tumor cell lines; FOLR1+ target cells
# Description: (§1) Cells were collected and centrifuged at 400×g, 5 min, 4° C. Cell pellets were resuspended in FACS buffer (PBS (Invitrogen, cat.: 392-0434) containing 2% h.i. FCS (Invitrogen, cat.: 10500-064), and 0.1% sodium azide (Sigma, cat.: S8032)) at 1-5×10⁶ cells/mL. 100 μL/well of the cell suspension were transferred into U-shaped, 96-well micro plates (0.1-0.5×10⁶ cells per well), cells were pelleted at 400×g, 5 min, 4° C., and resuspended in 100 μL/well of serial dilutions of the indicated antibodies in FACS buffer. After 40-50 min incubation at 37° C., cells were washed 3-times with ice-cold FACS buffer. […] After the final incubation step, cells were washed 2-times with ice-cold FACS buffer, and the cell pellet was resuspended in 100 μL FACS buffer. Fluorescence intensities of >1×10⁴ viable cells were analyzed by flow cytometry and the median fluorescence intensity (MFI) was determined for each sample.
# (§2) Equilibrium dissociation constants (KD) of antibody binding, mean and standard deviation (SD) were calculated by plotting MFI values and fitting a non-linear regression model for one-site binding to hyperbolic dose-response curves using GraphPad Prism for Windows (v9; GraphPad Software; La Jolla California USA).
# (§3) Specific antibody binding capacity (SABC) as a marker for FOLR1 expression level on cells was determined on all tumor cell lines using QIFIKIT.
# [2] = molecular target: T1, human FOLR1 endogenously expressed on …; experiment: flow cytometry on IGROV-1 cells (FOLR1 high) at 37 °C, FITC anti-human IgG detection
# Procedure, shortened: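 Cells in PBS with 2% h.i. FCS and 0.1% sodium azide, 0.1-0.5×10⁶ per well, were incubated 40-50 min with serial antibody dilutions, then washed with ice-cold buffer. Median fluorescence intensity of >1×10⁴ viable cells was determined by flow cytometry.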
# [3] = molecular target: T2, CD16A endogenously expressed on primary human NK cells (human, UniProt P08637 17-254); experiment: flow cytometry on primary human NK cells, biotinylated antibody, 37 C, with 10 mg/mL polyclonal human IgG as competitor, mean of 4
# Description: (§4) 4° C., and resuspended in 50 μL/well of diluted antibody constructs. […] After 40-50 minutes' incubation at 37° C., cells were washed 3-times with ice-cold FACS buffer. […] After the final incubation step, cells were washed 2-times with ice-cold FACS buffer, and the cell pellet was resuspended in 50 μL FACS buffer. Fluorescence intensity of >1×10⁴ viable cells was analyzed by flow cytometry and the median fluorescence intensity (MFI) was determined for each sample.
# (§5) Equilibrium dissociation constants (KD) of antibody binding were calculated by plotting MFI values and fitting a non-linear regression model for one-site binding to hyperbolic dose-response curves using GraphPad Prism.
# [4] = molecular target: T1, human FOLR1 endogenously expressed on …; experiment: cell-based or functional assay
# [5] = molecular target: T2, CD16A endogenously expressed on primary …; experiment: flow cytometry on primary human NK cells, with 10 mg/mL polyclonal human IgG as competitor, range of 4 experiments
# Description: as §4, §5
# [6] = molecular target: T1, human FOLR1 endogenously expressed on …; experiment: flow cytometry on OVCAR-3 cells (FOLR1 medium) at 37 °C, FITC anti-human IgG detection
# Description: as §1
# [7] = molecular target: T1, human FOLR1 endogenously expressed on …; experiment: flow cytometry on NCI-H2110 cells, 37 C, one-site fit of MFI, mean
# Description: as §1, §2, §3
# [8] = molecular target: T1, human FOLR1 endogenously expressed on …; experiment: flow cytometry on OVCAR-3 cells, 37 C, one-site fit of MFI, mean
# Description: as §1, §2, §3
# [9] = molecular target: T1, human FOLR1 endogenously expressed on …; experiment: flow cytometry on IGROV-1 cells, 37 C, one-site fit of MFI, mean
# Description: as §1, §2, §3
# [10] = molecular target: T2, CD16A endogenously expressed on primary …; experiment: flow cytometry on primary human NK cells, with against without 10 mg/mL polyclonal human IgG
# Description: as §4, §5
# [11] = molecular target: T2, CD16A endogenously expressed on primary …; experiment: flow cytometry on primary human NK cells at 37 °C, biotinylated antibody, streptavidin-FITC, without polyclonal human IgG
# Description: Frozen NK cells were thawed, and viability was determined with trypan blue (Sigma-Aldrich, cat.: T8154). Cells have been centrifuged at 400×g, 5 min, 4° C. Cell pellets were resuspended in FACS buffer PBS (Invitrogen, cat.: 392-0434) containing 2% h.i. FCS (Invitrogen, cat.: 10500-064), and 0.1% sodium azide (Sigma, cat.: S8032) at 2×10⁶ cells/mL. 100 μL/well of the cell suspension were transferred into U-shaped 96 well plates, cells were pelleted at 400×g, 5 min. 4° C., and resuspended in 50 μL/well of diluted antibody constructs. […] After 40-50 minutes' incubation at 37° C., cells were washed 3-times with ice-cold FACS buffer. […] After the final incubation step, cells were washed 2-times with ice-cold FACS buffer, and the cell pellet was resuspended in 50 μL FACS buffer. Fluorescence intensity of >1×10⁴ viable cells was analyzed by flow cytometry and the median fluorescence intensity (MFI) was determined for each sample.
# [12] = molecular target: T2, CD16A endogenously expressed on primary …; experiment: flow cytometry on primary human NK cells, biotinylated antibody, 37 C, without IgG, mean of 4
# Description: as §4, §5
# [13] = molecular target: T2, CD16A endogenously expressed on primary …; experiment: flow cytometry on primary human NK cells, without IgG, range of 4 experiments
# Description: as §4, §5
# [14] = molecular target: T1, human FOLR1 endogenously expressed on …; experiment: cell-based or functional assay; remark: listed apart in the source
# T2 sequence (P08637 17-254 limits assumed): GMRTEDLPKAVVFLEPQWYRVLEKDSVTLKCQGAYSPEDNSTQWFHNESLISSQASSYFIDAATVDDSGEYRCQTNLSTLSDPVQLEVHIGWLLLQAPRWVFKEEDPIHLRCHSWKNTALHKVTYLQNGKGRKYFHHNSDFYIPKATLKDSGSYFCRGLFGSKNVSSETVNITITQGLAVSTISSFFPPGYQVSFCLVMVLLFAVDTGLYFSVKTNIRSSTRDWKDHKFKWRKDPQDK
# T1 sequence (P15328 25-234): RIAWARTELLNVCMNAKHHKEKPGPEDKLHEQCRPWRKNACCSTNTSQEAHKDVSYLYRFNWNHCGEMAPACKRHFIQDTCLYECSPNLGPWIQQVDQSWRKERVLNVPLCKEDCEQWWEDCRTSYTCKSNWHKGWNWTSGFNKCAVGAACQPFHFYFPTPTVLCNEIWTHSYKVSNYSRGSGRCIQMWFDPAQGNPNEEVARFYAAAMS
binder,measurement,setting,value
B1,Kd,[1],2.7 nM
same,EC50 (read off the curve),[2],~3 nM
same,Kd,[3],23.1 nM
same,"EC50 of ADCC, 4 h calcein release, NK cells, HCC-827 cells",[4],0.006 nM
same,"EC50 of ADCC, 4 h calcein release, NK cells, OVCAR-3 cells",[4],0.0008 nM
same,Kd,[5],14.3 to 36.4 nM
same,EC50 (read off the curve),[6],~2 nM
same,Kd,[7],2.5 nM
same,Kd,[8],1.7 nM
same,Kd,[9],3.7 nM
same,fold loss in KD induced by IgG,[10],5.3 fold
same,EC50 (read off the curve),[11],~4 nM
same,Kd,[12],4.3 nM
same,Kd,[13],3.7 to 5.4 nM
same,"EC50 [pM] of ADCC, 4 h calcein release, NK cells E:T 5:1, IGROV-1 cells",[14],1 pM
same,"EC50 [pM] of ADCC, A2780 cells",[14],5.5 pM
same,"EC50 [pM] of ADCC, HCC-827 cells",[14],2.8 pM
same,"EC50 [pM] of ADCC, MDA-MB-231 cells",[14],6.5 pM
same,"EC50 [pM] of ADCC, NCI-H2110 cells",[14],0.8 pM
same,"EC50 [pM] of ADCC, OVCAR-3 cells",[14],1.1 pM
same,"fold-improvement in efficacy vs IgAb_335, ADCC, A2780 cells",[14],2.9 fold
same,"fold-improvement in efficacy vs IgAb_335, ADCC, HCC-827 cells",[14],1.9 fold
same,"fold-improvement in efficacy vs IgAb_335, ADCC, IGROV-1 cells",[14],0.9 fold
same,"fold-improvement in efficacy vs IgAb_335, ADCC, MDA-MB-231 cells",[14],2.1 fold
same,"fold-improvement in efficacy vs IgAb_335, ADCC, NCI-H2110 cells",[14],1.2 fold
same,"fold-improvement in efficacy vs IgAb_335, ADCC, OVCAR-3 cells",[14],1.4 fold
same,"fold-improvement in potency vs IgAb_335, ADCC, A2780 cells",[14],593 fold
same,"fold-improvement in potency vs IgAb_335, ADCC, HCC-827 cells",[14],30.8 fold
same,"fold-improvement in potency vs IgAb_335, ADCC, IGROV-1 cells",[14],15.1 fold
same,"fold-improvement in potency vs IgAb_335, ADCC, MDA-MB-231 cells",[14],54 fold
same,"fold-improvement in potency vs IgAb_335, ADCC, NCI-H2110 cells",[14],34.4 fold
same,"fold-improvement in potency vs IgAb_335, ADCC, OVCAR-3 cells",[14],40.4 fold
